The target of this experiment is Ryanodine receptor 1 (RyR1) (rabbit (endogenous in skeletal muscle), UniProt P11716). Put plainly: cryo-EM structure.

This note sets out measurements from paper doi:10.1101/2024.12.20.629683 (bioRxiv, 2024).

Sequence of Ryanodine receptor 1 (RyR1) (P11716 whole entry): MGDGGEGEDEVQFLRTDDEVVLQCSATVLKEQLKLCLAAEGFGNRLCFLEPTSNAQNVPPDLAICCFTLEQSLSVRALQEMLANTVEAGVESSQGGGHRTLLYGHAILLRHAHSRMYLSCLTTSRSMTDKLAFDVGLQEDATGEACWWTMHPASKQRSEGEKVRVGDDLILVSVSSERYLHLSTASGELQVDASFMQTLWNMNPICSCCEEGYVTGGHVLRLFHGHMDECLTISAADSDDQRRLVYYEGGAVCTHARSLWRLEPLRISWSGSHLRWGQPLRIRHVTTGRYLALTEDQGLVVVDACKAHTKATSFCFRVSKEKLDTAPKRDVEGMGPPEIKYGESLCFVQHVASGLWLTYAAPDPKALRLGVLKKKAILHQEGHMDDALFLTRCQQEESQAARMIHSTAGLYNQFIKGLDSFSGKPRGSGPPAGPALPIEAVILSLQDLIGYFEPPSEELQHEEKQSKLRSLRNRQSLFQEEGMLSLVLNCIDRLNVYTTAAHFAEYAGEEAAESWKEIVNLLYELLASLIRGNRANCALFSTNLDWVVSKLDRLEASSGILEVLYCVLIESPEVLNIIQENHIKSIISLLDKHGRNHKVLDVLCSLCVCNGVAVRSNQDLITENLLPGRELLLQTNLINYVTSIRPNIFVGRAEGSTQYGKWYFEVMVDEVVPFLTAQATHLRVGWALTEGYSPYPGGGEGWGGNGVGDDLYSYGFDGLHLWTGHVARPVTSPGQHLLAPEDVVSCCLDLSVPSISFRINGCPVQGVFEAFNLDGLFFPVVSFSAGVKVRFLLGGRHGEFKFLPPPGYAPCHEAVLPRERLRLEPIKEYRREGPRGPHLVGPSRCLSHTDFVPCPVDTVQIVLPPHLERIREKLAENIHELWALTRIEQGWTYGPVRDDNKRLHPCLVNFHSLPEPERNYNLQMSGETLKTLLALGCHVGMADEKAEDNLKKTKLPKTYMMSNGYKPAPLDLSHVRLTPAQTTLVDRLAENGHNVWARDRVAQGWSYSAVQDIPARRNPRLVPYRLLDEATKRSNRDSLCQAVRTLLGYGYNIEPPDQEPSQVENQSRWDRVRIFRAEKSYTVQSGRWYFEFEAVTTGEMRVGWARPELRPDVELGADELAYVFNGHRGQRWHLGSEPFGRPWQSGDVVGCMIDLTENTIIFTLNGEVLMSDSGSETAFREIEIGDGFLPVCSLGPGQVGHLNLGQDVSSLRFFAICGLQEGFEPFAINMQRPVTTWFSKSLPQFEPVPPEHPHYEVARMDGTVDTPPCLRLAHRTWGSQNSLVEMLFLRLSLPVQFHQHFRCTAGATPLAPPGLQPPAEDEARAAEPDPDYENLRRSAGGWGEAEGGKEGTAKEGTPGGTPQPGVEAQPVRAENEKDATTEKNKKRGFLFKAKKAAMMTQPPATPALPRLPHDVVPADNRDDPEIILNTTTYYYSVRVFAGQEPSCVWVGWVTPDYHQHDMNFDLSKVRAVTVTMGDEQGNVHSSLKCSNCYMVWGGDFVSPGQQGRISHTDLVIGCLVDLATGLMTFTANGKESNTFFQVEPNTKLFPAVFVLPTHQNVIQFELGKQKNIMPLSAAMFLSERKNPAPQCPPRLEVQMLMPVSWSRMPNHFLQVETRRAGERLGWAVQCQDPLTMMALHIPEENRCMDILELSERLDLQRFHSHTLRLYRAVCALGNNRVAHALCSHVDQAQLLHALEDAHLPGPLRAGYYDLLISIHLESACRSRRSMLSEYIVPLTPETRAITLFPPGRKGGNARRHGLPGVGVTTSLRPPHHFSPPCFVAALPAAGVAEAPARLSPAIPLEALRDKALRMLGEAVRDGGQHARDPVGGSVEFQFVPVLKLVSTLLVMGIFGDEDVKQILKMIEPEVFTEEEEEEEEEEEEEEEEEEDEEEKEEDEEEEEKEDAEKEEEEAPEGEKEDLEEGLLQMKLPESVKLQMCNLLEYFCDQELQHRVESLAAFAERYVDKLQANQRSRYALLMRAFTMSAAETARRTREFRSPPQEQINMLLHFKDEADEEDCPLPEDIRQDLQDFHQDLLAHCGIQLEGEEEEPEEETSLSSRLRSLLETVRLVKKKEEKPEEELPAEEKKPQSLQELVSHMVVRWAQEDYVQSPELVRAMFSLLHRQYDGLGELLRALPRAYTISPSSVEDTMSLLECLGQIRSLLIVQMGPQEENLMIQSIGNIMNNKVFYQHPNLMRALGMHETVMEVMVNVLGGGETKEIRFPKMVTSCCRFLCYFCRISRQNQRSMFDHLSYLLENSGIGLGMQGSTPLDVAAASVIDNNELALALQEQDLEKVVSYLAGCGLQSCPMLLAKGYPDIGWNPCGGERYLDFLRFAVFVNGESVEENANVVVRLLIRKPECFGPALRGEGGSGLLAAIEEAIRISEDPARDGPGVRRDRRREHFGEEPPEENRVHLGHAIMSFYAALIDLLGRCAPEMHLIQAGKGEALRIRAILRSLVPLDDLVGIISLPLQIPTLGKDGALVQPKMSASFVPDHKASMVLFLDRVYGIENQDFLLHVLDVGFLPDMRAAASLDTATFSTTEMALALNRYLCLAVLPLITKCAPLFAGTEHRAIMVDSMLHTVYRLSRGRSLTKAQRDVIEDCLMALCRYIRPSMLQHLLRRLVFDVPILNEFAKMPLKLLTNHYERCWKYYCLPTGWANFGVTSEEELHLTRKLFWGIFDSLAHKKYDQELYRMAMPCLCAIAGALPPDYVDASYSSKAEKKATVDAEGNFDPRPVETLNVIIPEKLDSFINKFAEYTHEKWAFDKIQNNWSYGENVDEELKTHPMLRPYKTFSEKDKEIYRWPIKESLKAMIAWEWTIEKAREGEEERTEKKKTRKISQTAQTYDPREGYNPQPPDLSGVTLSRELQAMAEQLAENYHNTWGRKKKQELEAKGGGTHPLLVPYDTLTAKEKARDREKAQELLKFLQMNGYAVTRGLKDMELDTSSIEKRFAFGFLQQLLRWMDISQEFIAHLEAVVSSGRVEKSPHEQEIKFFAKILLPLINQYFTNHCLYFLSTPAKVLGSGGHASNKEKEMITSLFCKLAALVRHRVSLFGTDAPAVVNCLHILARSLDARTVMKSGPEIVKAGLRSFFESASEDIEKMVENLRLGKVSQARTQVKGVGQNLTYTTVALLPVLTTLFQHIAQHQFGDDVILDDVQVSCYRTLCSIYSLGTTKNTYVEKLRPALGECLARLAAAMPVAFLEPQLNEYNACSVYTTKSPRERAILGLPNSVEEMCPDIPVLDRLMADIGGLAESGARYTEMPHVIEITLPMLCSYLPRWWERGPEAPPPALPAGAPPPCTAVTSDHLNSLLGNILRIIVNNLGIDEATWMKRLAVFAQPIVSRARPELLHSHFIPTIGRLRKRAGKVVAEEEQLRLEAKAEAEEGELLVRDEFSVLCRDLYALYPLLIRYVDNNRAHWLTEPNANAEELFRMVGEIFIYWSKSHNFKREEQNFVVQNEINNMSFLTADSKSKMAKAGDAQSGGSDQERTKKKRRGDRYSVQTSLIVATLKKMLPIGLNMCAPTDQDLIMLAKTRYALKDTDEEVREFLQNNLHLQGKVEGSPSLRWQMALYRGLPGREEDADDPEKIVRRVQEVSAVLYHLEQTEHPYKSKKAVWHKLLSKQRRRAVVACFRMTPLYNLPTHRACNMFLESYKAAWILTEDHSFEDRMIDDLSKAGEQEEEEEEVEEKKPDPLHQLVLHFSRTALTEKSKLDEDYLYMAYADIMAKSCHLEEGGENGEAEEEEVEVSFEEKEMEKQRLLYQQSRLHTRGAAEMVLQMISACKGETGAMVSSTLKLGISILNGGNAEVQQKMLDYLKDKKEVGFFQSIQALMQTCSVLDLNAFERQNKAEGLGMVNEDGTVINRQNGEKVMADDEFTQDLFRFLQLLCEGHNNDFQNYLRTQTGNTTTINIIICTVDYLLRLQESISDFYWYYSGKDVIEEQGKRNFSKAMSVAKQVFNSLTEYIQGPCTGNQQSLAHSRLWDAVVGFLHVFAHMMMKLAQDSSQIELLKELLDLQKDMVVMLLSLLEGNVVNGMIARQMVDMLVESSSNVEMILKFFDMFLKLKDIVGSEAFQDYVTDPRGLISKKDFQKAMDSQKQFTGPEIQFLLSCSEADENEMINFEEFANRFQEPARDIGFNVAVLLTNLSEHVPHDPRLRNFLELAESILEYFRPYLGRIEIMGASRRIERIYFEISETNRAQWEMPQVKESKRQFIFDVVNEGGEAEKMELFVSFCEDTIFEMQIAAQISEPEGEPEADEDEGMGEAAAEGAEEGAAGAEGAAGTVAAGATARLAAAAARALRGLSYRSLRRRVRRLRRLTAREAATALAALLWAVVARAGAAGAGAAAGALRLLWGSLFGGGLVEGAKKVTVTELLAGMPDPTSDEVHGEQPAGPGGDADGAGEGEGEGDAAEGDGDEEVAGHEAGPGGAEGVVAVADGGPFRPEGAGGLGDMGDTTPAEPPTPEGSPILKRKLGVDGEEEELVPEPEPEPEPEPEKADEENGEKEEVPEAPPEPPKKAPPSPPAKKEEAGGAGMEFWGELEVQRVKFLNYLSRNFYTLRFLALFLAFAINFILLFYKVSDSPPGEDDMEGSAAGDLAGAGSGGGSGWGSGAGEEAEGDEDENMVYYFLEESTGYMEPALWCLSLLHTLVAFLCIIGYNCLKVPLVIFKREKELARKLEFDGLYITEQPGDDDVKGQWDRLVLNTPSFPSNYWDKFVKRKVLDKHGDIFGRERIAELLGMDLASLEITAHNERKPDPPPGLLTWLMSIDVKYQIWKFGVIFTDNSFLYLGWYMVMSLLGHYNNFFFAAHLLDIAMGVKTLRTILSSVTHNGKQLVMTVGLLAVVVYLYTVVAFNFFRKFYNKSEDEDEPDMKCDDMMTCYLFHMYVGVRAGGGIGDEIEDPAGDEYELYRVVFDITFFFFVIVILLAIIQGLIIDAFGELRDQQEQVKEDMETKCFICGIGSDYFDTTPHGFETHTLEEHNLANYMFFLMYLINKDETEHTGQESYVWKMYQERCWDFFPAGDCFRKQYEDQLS

B1: RyR-specific nanobody Nb9657 (VHH)
VHH: QVQLQESGGGLMQAGGSLRLSCTASGSIFSINSMGWYRQAPGKQRELVATITSGNSINYADSVKGRFTISRDNAKNTVYLQMNSLKPEDTAVYYCNADRVPNGYNPWGTPNDEYDYWGQGTQVTVSS
Turning to B1, the binding result is “binds”.
